According to patent US20260139049A1 (published 2026):
Like-named read-outs stand apart in the source and are kept apart here.

T1: human CLDN6 (human, UniProt P56747 1-220)
T1 chain: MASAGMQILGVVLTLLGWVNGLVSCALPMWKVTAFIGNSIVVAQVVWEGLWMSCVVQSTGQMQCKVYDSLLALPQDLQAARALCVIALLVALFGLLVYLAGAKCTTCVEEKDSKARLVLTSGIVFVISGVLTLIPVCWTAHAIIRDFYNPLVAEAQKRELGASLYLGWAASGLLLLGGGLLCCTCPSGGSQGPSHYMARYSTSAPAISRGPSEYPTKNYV

T2: mouse CLDN6 (mouse, UniProt Q9Z262 1-219)
T2 chain: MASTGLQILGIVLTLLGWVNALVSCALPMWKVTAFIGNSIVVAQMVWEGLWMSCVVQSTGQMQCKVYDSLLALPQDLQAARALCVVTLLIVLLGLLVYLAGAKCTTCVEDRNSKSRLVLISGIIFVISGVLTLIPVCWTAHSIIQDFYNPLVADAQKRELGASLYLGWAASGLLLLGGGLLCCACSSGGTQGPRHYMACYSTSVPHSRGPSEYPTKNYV

T3: monkey CLDN6 (Cyno CLDN6) (monkey (Cyno))
T3 chain: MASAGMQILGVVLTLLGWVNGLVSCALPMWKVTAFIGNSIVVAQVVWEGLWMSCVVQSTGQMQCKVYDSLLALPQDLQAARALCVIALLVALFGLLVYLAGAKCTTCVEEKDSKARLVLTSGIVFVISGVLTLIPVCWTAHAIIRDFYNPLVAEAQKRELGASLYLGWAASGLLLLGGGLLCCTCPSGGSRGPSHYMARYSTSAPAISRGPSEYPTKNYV


Legend:
human CLDN6 [1] = molecular target: T1, human CLDN6; test: FACS; HepG2 cells
mouse CLDN6 = molecular target: T2, mouse CLDN6; test: FACS
[2] = molecular target: T3, monkey CLDN6 (Cyno CLDN6); test: FACS
[3] = molecular target: T3, monkey CLDN6 (Cyno CLDN6); test: FACS
human CLDN6 [4] = molecular target: T1, human CLDN6; test: FACS; HepG2 cells, FIG. 24

Row | Binder | EC50 (human CLDN6 [1]) | EC50 (mouse CLDN6) | EC50 [2] | EC50 [3] | EC50 (human CLDN6 [4])
1 | RecA101 (antibody, V domains shown) VH: EVQLQQSGPELVKPGASVKMSCKASGYTFTDYNMHWVKKSHGKSLEWIGYVNPNNGATSYNQKFKGKATLTVNKSSSTAYMELRSLTSEDSAVYNCARWDGYVYYYGLDYWGQGTSVTVSS VL: DIQMTQSSSYLSVSLGGRVTITCKASDHINNWLAWYQQKPGNAPRLLISGATSLETGVPSRFSGSGSGKDYTLSITSLQTEDVATYYCQQYWNTPYTFGGGTKLEIKR | 0.521 µg/mL | – | – | – | –
2 | 54B5A7 (antibody, V domains shown) VH: EVQLQQSGPELVKPGASVKMSCKASGYTFTDYNMHWVKKSHGKSLEWIGYINPNNGATNYNQKFKGKATLTVNKSSSTAYMELRSLTSEDSAVYNCARWDGYVYYYGMDYWGQGTSVTVSS VL: DIQMTQSSSYLSVSLGGRVTITCKASDHINNWLAWYQQKPGNAPRLLISGATSLETGVPSRFSGSGSGKDYTLSITSLQTEDVATYYCQQYWNTPYTFGGGTKLEIKR | – | 0.844 µg/mL | – | – | –
3 | 51C10H4 (antibody, V domains shown) VH: EVQLQQSGPELVKPGASVKMSCKASGYTFTDYNMHWVKKSHGKSLEWIGYVNPNNGATSYNQKFKGKATLTVNKSSSTAYMELRSLTSEDSAVYNCARWDGYVYYYGLDYWGQGTSVTVSS VL: DIQMTQSSSYLSVSLGGRVTITCKASDHINNWLAWYQQKPGNAPRLLISGATSLETGVPSRFSGSGSGKDYTLSITSLQTEDVATYYCQQYWSTPYTFGGGTKLEIKR | – | 0.608 µg/mL | 0.636 µg/mL | – | –
4 | PiH2006 (antibody, V domains shown) VH: QVQLVQSGAEVKKPGASVKVSCKASGYTFTDYNMHWVRQAPGQRLEWIGYINPNNGATNYNQKFKGRVTITVDTSASTAYMELSSLRSEDTAVYNCARWDGYVYYYGMDYWGQGTLVTVSS VL: DIQMTQSPSSLSASVGGRVTITCKASDHINNWLAWYQQKPGKAPKLLISGATSLETGVPSRFSGSGSGTDYTFTISSLQPEDIATYYCQQYWNTPYTFGGGTKLEIKR | – | 52.3 µg/mL | – | 1.33 µg/mL | –
5 | IMAB027 (antibody, V domains shown) VH: EVQLQQSGPELVKPGASMKISCKASGYSFTGYTMNWVKQSHGKNLEWIGLINPYNGGTIYNQKFKGKATLTVDKSSSTAYMELLSLTSEDSAVYYCARDYGFVLDYWGQGTTLTVSS VL: IVLTQSPAIMSASPGEKVTITCSASSSVSYLHWFQQKPGTSPKLWVYSTSNLPSGVPARFGGSGSGTSYSLTISRMEAEDAATYYCQQRSIYPPWTFGGGTKLEIKR | – | – | 0.0916 µg/mL | 0.0916 µg/mL | 0.537 µg/mL

Other lines, results leading:

Row | EC50 (human CLDN6 [1]) | EC50 (mouse CLDN6) | EC50 [2] | EC50 [3] | EC50 (human CLDN6 [4]) | Binder
6 | – | 6.42 µg/mL | 0.97 µg/mL | – | – | PiH1008 (antibody, V domains shown) VH: QVQLVQSGAEVKKPGASVKVSCKASGYTFTDYNMHWVRQAPGQSLEWIGYVNPNNGATSYNQKFKGRATMTVDKSTSTVYMELSSLRSEDTAVYNCARWDGYVYYYGLDYWGQGTLVTVSS VL: DIQMTQSPSSLSASVGGRVTITCKASDHINNWLAWYQQKPGKVPRLLISGATSLETGVPSRFSGSGSGTDYTLTISSLQPEDVATYYCQQYWSTPYTFGGGTKLEIKR
7 | – | 8.57 µg/mL | 0.844 µg/mL | – | – | PiH1004 (antibody, V domains shown) VH: QVQLVQSGAEVKKPGASVKVSCKASGYTFTDYNMHWVRQAPGQSLEWIGYVNPNNGATSYNQKFKGRATMTVDKSTSTVYMELSSLRSEDTAVYNCARWDGYVYYYGLDYWGQGTLVTVSS VL: DIQMTQSPSSLSASVGDRVTITCKASDHINNWLAWYQQKPGKVPKLLISGATSLETGVPSRFSGSGSGTDYTLTISSLQPEDVATYYCQQYWSTPYTFGGGTKLEIKR
8 | – | 18.4 µg/mL | 1.28 µg/mL | – | – | PiH1006 (antibody, V domains shown) VH: QVQLVQSGAEVKKPGASVKVSCKASGYTFTDYNMHWVRQAPGQGLEWIGYVNPNNGATSYNQKFKGRVTMTVDTSTSTVYMELSSLRSEDTAVYNCARWDGYVYYYGLDYWGQGTLVTVSS VL: DIQMTQSPSSLSASVGGRVTITCKASDHINNWLAWYQQKPGKVPRLLISGATSLETGVPSRFSGSGSGTDYTLTISSLQPEDVATYYCQQYWSTPYTFGGGTKLEIKR
